Publication PMC3277881 (Molecular Cell, 2011)

T1: Atg3 (yeast) (yeast (budding yeast), UniProt P40344 1-310)
T1 sequence: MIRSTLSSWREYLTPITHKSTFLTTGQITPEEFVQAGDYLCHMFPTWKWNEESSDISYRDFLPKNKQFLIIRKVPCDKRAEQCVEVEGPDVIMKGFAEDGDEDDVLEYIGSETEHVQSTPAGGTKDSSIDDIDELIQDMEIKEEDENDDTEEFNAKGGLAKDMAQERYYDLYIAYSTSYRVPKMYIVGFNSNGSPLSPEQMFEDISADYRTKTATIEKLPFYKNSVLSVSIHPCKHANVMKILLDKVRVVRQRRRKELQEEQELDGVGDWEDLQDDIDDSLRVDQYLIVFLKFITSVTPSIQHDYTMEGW

B1: Atg7 N-terminal domain (Atg7^NTD), yeast (domain or fragment, yeast (budding yeast), UniProt P38862 1-289, looked up)
chain: MSSERVLSYAPAFKSFLDTSFFQELSRLKLDVLKLDSTCQPLTVNLDLHNIPKSADQVPLFLTNRSFEKHNNKRTNEVPLQGSIFNFNVLDEFKNLDKQLFLHQRALECWEDGIKDINKCVSFVIISFADLKKYRFYYWLGVPCFQRPSSTVLHVRPEPSLKGLFSKCQKWFDVNYSKWVCILDADDEIVNYDKCIIRKTKVLAIRDTSTMENVPSALTKNFLSVLQYDVPDLIDFKLLIIRQNEGSFALNATFASIDPQSSSSNPDMKVSGWERNVQGKLAPRVVDLS
B2: Atg7 C-terminal domain (Atg7^CTD), yeast (domain or fragment, yeast (budding yeast))
chain: SSLLDPLKIADQSVDLNLKLMKWRILPDLNLDIIKNTKVLLLGAGTLGCYVSRALIAWGVRKITFVDNGTVSYSNPVRQALYNFEDCGKPKAELAAASLKRIFPLMDATGVKLSIPMIGHKLVNEEAQHKDFDRLRALIKEHDIIFLLVDSRESRWLPSLLSNIENKTVINAALGFDSYLVMRHGNRDEQSSKQLGCYFCHDVVAPTDSLTDRTLDQMCTVTRPGVAMMASSLAVELMTSLLQTKYSGSETTVLGDIPHQIRGFLHNFSILKLETPAYEHCPACSPKVIEAFTDLGWEFVKKALEHPLYLEEISGLSVIKQEVERLGNDVFEWEDDESDEIA
B3: Atg3^ΔFR (yeast Atg3 with the FR region, residues 86-159, deleted) (enzyme, yeast (budding yeast))
chain: MIRSTLSSWREYLTPITHKSTFLTTGQITPEEFVQAGDYLCHMFPTWKWNEESSDISYRDFLPKNKQFLIIRKVPCDKRAEQCVEAKDMAQERYYDLYIAYSTSYRVPKMYIVGFNSNGSPLSPEQMFEDISADYRTKTATIEKLPFYKNSVLSVSIHPCKHANVMKILLDKVRVVRQRRRKELQEEQELDGVGDWEDLQDDIDDSLRVDQYLIVFLKFITSVTPSIQHDYTMEGW
B4: synthetic peptide encompassing Atg3 residues 128-144 (Atg3^FRpep) (peptide, UniProt P40344 128-144, looked up)
peptide: SIDDIDELIQDMEIKEE
B5: full-length yeast Atg7 (enzyme, yeast (budding yeast), UniProt P38862 1-630, looked up)
chain: MSSERVLSYAPAFKSFLDTSFFQELSRLKLDVLKLDSTCQPLTVNLDLHNIPKSADQVPLFLTNRSFEKHNNKRTNEVPLQGSIFNFNVLDEFKNLDKQLFLHQRALECWEDGIKDINKCVSFVIISFADLKKYRFYYWLGVPCFQRPSSTVLHVRPEPSLKGLFSKCQKWFDVNYSKWVCILDADDEIVNYDKCIIRKTKVLAIRDTSTMENVPSALTKNFLSVLQYDVPDLIDFKLLIIRQNEGSFALNATFASIDPQSSSSNPDMKVSGWERNVQGKLAPRVVDLSSLLDPLKIADQSVDLNLKLMKWRILPDLNLDIIKNTKVLLLGAGTLGCYVSRALIAWGVRKITFVDNGTVSYSNPVRQALYNFEDCGKPKAELAAASLKRIFPLMDATGVKLSIPMIGHKLVNEEAQHKDFDRLRALIKEHDIIFLLVDSRESRWLPSLLSNIENKTVINAALGFDSYLVMRHGNRDEQSSKQLGCYFCHDVVAPTDSLTDRTLDQMCTVTRPGVAMMASSLAVELMTSLLQTKYSGSETTVLGDIPHQIRGFLHNFSILKLETPAYEHCPACSPKVIEAFTDLGWEFVKKALEHPLYLEEISGLSVIKQEVERLGNDVFEWEDDESDEIA

Experiments:
[1] = biological target: T1, Atg3 (yeast); experiment: ITC
[2] = biological target: the molecule itself; experiment: AUC
[3] = biological target: B5; experiment: ITC

Binder: B1
Kd [1]: 1.85 µM

Binder: B2
stoichiometry N [2]: 2

Binder: B3
fold change of Kd against Atg3 [3]: > 40 fold

Binder: B4
Kd [3]: 5.9 µM

Binder: B5
stoichiometry N [2]: 2
